Measurements as given in patent EP4574844A1 (Numab Therapeutics AG, dated 2025).
Blank lines part the entries; values can stand above or below the binder they belong to.

Assays:
recombinant human PDL1 [1] = target: T1, recombinant human PDL1 (human, UniProt Q9NZQ7 19-238, limits assumed); test: SPR
T1 construct: SPR antigen; also called CD274; B7-H1

[2] = target: T2, recombinant cynomolgus PDL1 (cynomolgus monkey, UniProt G7PSE7 19-238); test: SPR
T2 construct: also called cynom; PDL1

[3] = target: T3, human PD-L1 on the cell surface (human, UniProt Q9NZQ7 19-290); test: cell-based or functional assay
Fc-tagged human PDL2 = target: T4, Fc-tagged human PDL2 (human, UniProt Q9BQ51 20-220, limits assumed); test: SPR, Fc-tagged human PDL2 captured, scFv as analyte
T4 sequence (looked up): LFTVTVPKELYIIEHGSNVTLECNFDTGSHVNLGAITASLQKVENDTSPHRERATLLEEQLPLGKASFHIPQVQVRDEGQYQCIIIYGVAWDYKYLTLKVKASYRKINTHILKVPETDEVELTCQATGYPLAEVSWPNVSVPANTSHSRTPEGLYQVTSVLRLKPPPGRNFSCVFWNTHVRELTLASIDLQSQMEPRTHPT

recombinant human LILRB2 [4] = target: T5, recombinant human LILRB2 (human, UniProt Q8N423 22-460, limits assumed); test: SPR, LILRB2 immobilised, scFv as analyte
T5 construct: also called ILT4
T5 sequence (Q8N423 22-460 limits assumed): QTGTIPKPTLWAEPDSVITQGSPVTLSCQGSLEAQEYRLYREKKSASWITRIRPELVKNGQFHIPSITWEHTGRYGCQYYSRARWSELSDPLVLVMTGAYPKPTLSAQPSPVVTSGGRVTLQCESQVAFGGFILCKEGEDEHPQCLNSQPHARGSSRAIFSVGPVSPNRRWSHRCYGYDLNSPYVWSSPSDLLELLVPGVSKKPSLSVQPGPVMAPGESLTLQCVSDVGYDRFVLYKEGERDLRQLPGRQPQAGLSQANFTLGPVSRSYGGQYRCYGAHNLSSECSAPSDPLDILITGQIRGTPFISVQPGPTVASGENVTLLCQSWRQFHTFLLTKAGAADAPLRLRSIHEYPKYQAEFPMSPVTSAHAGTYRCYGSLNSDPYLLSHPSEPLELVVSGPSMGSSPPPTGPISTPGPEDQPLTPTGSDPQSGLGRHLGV

[5] = target: T6, human LILRB2 on the cell surface (human, UniProt Q8N423 22-597); test: flow cytometry, CHO K1 cells expressing human LILRB2
T6 construct: whole, on cells; also called CHO K1 cells expressing human LILRB2; LILRB2 on HMDMs
T6 sequence (Q8N423 22-597): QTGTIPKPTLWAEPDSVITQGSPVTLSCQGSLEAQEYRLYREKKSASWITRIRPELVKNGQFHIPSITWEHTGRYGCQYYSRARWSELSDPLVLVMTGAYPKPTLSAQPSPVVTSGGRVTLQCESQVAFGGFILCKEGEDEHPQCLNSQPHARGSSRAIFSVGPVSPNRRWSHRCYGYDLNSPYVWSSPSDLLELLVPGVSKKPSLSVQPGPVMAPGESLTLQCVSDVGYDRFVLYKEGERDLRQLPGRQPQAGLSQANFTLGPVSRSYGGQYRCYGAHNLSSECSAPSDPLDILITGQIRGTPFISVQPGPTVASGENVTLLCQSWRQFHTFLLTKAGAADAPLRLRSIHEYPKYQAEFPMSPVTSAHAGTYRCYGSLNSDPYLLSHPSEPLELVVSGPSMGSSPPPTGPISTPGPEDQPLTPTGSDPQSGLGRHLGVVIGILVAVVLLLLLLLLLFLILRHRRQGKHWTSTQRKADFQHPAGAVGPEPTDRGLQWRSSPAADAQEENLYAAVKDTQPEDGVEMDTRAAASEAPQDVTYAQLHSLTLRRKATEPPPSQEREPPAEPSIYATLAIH

[6] = target: T6, human LILRB2 on the cell surface; test: flow cytometry, CHO cells expressing LILRB2; competitor HLA-G tetramer
[7] = target: T6, human LILRB2 on the cell surface; test: flow cytometry, CHO cells expressing LILRB2; competitor HLA-A0301 dextramer
[8] = target: T6, human LILRB2 on the cell surface; test: flow cytometry, CHO cells expressing LILRB2; competitor HLA-G tetramer; reference PRO2518
[9] = target: T6, human LILRB2 on the cell surface; test: cell-based or functional assay
[10] = target: T6, human LILRB2 on the cell surface; test: cell-based or functional assay; remark: listed apart in the source
[11] = target: T7, human CD47 on the cell surface (human, UniProt Q08722 19-323); test: cell-based or functional assay
[12] = target: T3, human PD-L1 on the cell surface; test: cell-based or functional assay; remark: listed apart in the source
[13] = target: T7, human CD47 on the cell surface; test: cell-based or functional assay; remark: listed apart in the source
[14] = target: T2, recombinant cynomolgus PDL1; test: SPR, antigen immobilised, antibody as analyte
recombinant human CD47 = recombinant human CD47 (human, UniProt Q08722 19-139, limits assumed); test: SPR, antigen immobilised, antibody as analyte
[15] = target: T8, recombinant cynomolgus CD47 (cynomolgus monkey, UniProt A0A2K5X523 19-139); test: SPR, antigen immobilised, antibody as analyte
T8 construct: also called cynom; CD47

recombinant human PDL1 [16] = target: T1, recombinant human PDL1; test: SPR, antigen immobilised, antibody as analyte
recombinant human LILRB2 [17] = target: T5, recombinant human LILRB2; test: SPR, antibody captured by anti-framework IgG, antigen as analyte (without avidity)

T2 sequence (G7PSE7 entry or part of it): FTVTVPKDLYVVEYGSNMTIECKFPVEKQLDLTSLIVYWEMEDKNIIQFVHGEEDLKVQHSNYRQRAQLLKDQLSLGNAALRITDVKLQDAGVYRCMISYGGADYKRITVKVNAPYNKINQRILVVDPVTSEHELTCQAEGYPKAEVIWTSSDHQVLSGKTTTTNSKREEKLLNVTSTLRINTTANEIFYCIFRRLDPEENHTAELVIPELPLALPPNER

Kd (recombinant human PDL1 [1]): 8.6 pM
koff (recombinant human PDL1 [1]): 4.8e-05 s⁻¹
kon (recombinant human PDL1 [1]): 5.6e+06 M⁻¹ s⁻¹
Kd [2]: 6.5 pM
koff [2]: 3.4e-05 s⁻¹
kon [2]: 5.2e+06 M⁻¹ s⁻¹
PDL1/PD-1 EC50 [nM], NFAT reporter gene assay [3]: 0.97 nM
PDL1/PD-1 Max. inhibition (rel. to avelumab) [%] [3]: 104%
binding result (Fc-tagged human PDL2): no binding (tested: 180 nM)
B1: PRO1392 (scFv)
scFv: DIQMTQSPSSLSASVGDRVTITCQASQSINDYLAWYQQKPGKAPKLLIYKASTLASGVPSRFSGSGSGTDFTLTISSLQPEDFATYYCQQGYIITDIDNVFGTGTKVTVLGGGGGSGGGGSGGGGSGGGGSQVQLQESGPGLVKPSETLSLTCKASGFSFSSGYDMCWVRQPPGKGLEWIACVVAGSVDITYYASWAKGRVTISKDSSKNQVSLKLSSVTAADTAVYYCARKDAYSDAFNLWGQGTLVTVSS
notes: anti-PDL1 scFv (VL-linker-VH); also called 33-03-G02-sc18

Kd (recombinant human LILRB2 [4]): 148 pM
koff (recombinant human LILRB2 [4]): 0.000114 s⁻¹
kon (recombinant human LILRB2 [4]): 771000 M⁻¹ s⁻¹
EC50 [5]: 881 pM
IC50 [6]: 973 pM
IC50 [7]: 893 pM
Rel. max. inhibition % (rel. to J-19) [8]: 99.1%
B2: PRO3744 (scFv)
scFv: DVQMTQSPSSLSASVGDRVTITCQASQSIGSNLAWYQQKPGKPPKLLIYKGGTLESGVPSRFSGSGSGTDFTLTISSLQPEDFATYYCQSTAGSSRSGNYGYVFGCGTKVTVLGGGGGSGGGGSGGGGSGGGGSQQLVESGGGLVQPGGSLRLSCAASGFSFTNNYYMCWVRQAPGKCLEWIACMLVGAWGNTYYASWANGRFTISKDNSKNTVYLQMNSLRAEDSAVYFCARARDYTWTLGGDPETSGFNLWGQGTLVKVSS
notes: anti-LILRB2 scFv; also called 68-18-E11-sc07

CD86 EC50 [nM], re-polarization of M2 macrophages [9]: 0.085 nM
CD163 EC50 [nM], re-polarization of M2 macrophages [9]: 0.058 nM
CD206 EC50 [nM], re-polarization of M2 macrophages [9]: 0.128 nM
IL-1β EC50 [nM], LPS-driven cytokine secretion [10]: 0.0705 nM
IL-6 EC50 [nM], LPS-driven cytokine secretion [10]: 0.063 nM
TNF-α EC50 [nM], LPS-driven cytokine secretion [10]: 0.141 nM
CD47 driven EC50 [nM], phagocytosis of A375 cells [11]: 12.1 nM
PD-L1 driven EC50 [nM], phagocytosis of H292 cells [12]: 0.19 nM
CD47 driven EC50 [nM], phagocytosis of H292 cells [13]: 10.9 nM
CD47 driven EC50 [nM], phagocytosis of RBCs [13]: 44.6 nM
Kd [14]: 8.4 pM
Kd (recombinant human CD47): 21000 pM
koff (recombinant human CD47): 0.011 s⁻¹
kon (recombinant human CD47): 510000 M⁻¹ s⁻¹
Kd [15]: 21000 pM
Kd (recombinant human PDL1 [16]): 16 pM
koff (recombinant human PDL1 [16]): 3.3e-05 s⁻¹
kon (recombinant human PDL1 [16]): 2.2e+06 M⁻¹ s⁻¹
Kd (recombinant human LILRB2 [17]): 350 pM
koff (recombinant human LILRB2 [17]): 9.2e-05 s⁻¹
kon (recombinant human LILRB2 [17]): 260000 M⁻¹ s⁻¹
B3: PRO5055 (antibody, human IgG1, kappa)
chain: DVQMTQSPSSLSASVGDRVTITCQASQSISSWVSWYQQKPGKPPKLLIYRGGYLESGVPSRFSASGSGTDFTLTISSLQPEDFATYYCQSTDSSTYGGAFGCGTKVTVLGGGGGSGGGGSGGGGSGGGGSQQVVESGGGLVQPGGSLRLSCAVSGIDLNSYAMTWVRQAPGKCLEWIGYIGSASSTYYASWASGRFTISKDNSKNTVYLQMNSLRAEDSAVYFCARGSTYINIWGQGTLVKVSSEPKSSDKTHTCPPCPAPELLGGPSVFLFPPKPKDTLMISRTPEVTCVVVDVSHEDPEVKFNWYVDGVEVHNAKTKPREEQYNSTYRVVSVLTVLHQDWLNGKEYKCKVSNKALPAPIEKTISKAKGQPREPQVYTLPPCREEMTKNQVSLSCAVKGFYPSDIAVEWESNGQPENNYKTTPPVLDSDGSFFLVSKLTVDKSRWQQGNVFSCSVMHEALHNHYTQKSLSLSPGKGGGGSGGGGSDVQMTQSPSSLSASVGDRVTITCQASQSIGSNLAWYQQKPGKPPKLLIYKGGTLESGVPSRFSGSGSGTDFTLTISSLQPEDFATYYCQSTAGSSRSGNYGYVFGCGTKVTVLGGGGGSGGGGSGGGGSGGGGSQQLVESGGGLVQPGGSLRLSCAASGFSFTNNYYMCWVRQAPGKCLEWIACMLVGAWGNTYYASWANGRFTISKDNSKNTVYLQMNSLRAEDSAVYFCARARDYTWTLGGDPETSGFNLWGQGTLVKVSS
heavy: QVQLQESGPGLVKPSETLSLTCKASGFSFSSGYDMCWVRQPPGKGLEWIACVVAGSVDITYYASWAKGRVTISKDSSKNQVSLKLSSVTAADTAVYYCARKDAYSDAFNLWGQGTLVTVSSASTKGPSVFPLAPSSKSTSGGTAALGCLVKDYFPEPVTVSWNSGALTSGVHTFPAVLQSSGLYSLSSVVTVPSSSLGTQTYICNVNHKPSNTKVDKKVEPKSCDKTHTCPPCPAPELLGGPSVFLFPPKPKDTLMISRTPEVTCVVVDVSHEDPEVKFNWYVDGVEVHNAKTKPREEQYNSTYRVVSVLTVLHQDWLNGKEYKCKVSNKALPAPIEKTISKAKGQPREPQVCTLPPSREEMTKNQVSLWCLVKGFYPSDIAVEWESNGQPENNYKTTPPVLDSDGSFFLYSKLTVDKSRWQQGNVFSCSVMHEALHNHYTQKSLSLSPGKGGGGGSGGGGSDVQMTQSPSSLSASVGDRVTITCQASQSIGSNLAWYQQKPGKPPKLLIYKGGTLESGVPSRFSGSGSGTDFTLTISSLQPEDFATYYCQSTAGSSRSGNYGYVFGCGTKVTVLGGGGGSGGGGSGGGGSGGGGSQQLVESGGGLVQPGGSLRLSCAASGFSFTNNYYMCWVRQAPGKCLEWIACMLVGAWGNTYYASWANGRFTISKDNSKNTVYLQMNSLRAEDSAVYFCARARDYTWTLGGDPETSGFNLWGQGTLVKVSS
light: DIQMTQSPSSLSASVGDRVTITCQASQSINDYLAWYQQKPGKAPKLLIYKGGTLASGVPSRFSGSGSGTDFTLTISSLQPEDFATYYCQQGYIITDIDNVFGQGTKVEIKRTVAAPSVFIFPPSDEQLKSGTASVVCLLNNFYPREAKVQWKVDNALQSGNSQESVTEQDSKDSTYSLSSTLTLSKADYEKHKVYACEVTHQGLSSPVTKSFNRGEC
notes: trispecific anti-PDL1 x CD47 x LILRB2; PDL1-BD as Fab; also called PRO4687 with 33-03-G02-based PDL1-BD
